IntAct's records for PubMed 19122675

B1: Calmodulin-binding transcription activator 3 (Arabidopsis thaliana (Mouse-ear cress)), Q8GSA7 (parent)
chain: MAEARRFSPVHELDVGQILSEARHRWLRPPEICEILQNYQRFQISTEPPTTPSSGSVFMFDRKVLRYFRKDGHNWRKKKDGKTVKEAHERLKAGSVDVLHCYYAHGQDNENFQRRSYWLLQEELSHIVFVHYLEVKGSRVSTSFNRMQRTEDAARSPQETGDALTSEHDGYASCSFNQNDHSNHSQTTDSASVNGFHSPELEDAESAYNQHGSSTAYSHQELQQPATGGNLTGFDPYYQISLTPRDSYQKELRTIPVTDSSIMVDKSKTINSPGVTNGLKNRKSIDSQTWEEILGNCGSGVEALPLQPNSEHEVLDQILESSFTMQDFASLQESMVKSQNQELNSGLTSDRTVWFQGQDMELNAISNLASNEKAPYLSTMKQHLLHGALGEEGLKKMDSFNRWMSKELGDVGVIADANESFTQSSSRTYWEEVESEDGSNGHNSRRDMDGYVMSPSLSKEQLFSINDFSPSWAYVGCEVVVFVTGKFLKTREETEIGEWSCMFGQTEVPADVISNGILQCVAPMHEAGRVPFYVTCSNRLACSEVREFEYKVAESQVFDREADDESTIDILEARFVKLLCSKSENTSPVSGNDSDLSQLSEKISLLLFENDDQLDQMLMNEISQENMKNNLLQEFLKESLHSWLLQKIAEGGKGPSVLDEGGQGVLHFAASLGYNWALEPTIIAGVSVDFRDVNGWTALHWAAFFGRERIIGSLIALGAAPGTLTDPNPDFPSGSTPSDLAYANGHKGIAGYLSEYALRAHVSLLSLNDKNAETVEMAPSPSSSSLTDSLTAVRNATQAAARIHQVFRAQSFQKKQLKEFGDKKLGMSEERALSMLAPKTHKSGRAHSDDSVQAAAIRIQNKFRGYKGRKDYLITRQRIIKIQAHVRGYQFRKNYRKIIWSVGVLEKVILRWRRKGAGLRGFKSEALVEKMQDGTEKEEDDDFFKQGRKQTEDRLQKALARVKSMVQYPEARDQYRRLLNVVNDIQESKVEKALENSEATCFDDDDDLIDIEALLEDDDTLMLPMSSSLWTS

Variants of: B1
Settings: with calm5_soltu PCM5, Q7DMN9

Row | Variant | effect of a mutation on the interaction
1 | K907E | disrupting interaction
